# Experimental data: patent publication US20250264455
# T1: P2-TmEnc^BC2-Tag
# T1 chain: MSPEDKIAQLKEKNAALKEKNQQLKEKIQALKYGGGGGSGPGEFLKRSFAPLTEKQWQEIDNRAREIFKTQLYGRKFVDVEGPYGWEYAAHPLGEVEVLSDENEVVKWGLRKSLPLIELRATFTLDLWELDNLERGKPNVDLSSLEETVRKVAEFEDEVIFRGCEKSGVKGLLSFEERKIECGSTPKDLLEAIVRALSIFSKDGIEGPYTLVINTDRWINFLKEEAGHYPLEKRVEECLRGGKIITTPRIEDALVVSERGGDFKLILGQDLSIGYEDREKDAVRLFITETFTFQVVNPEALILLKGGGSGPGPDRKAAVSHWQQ
# B1: BmTyr-P1 (protein)
# chain: MGHSNKYRVRKNVLHLTDTEKRDFVRTVLILKEKGIYDRYIAWHGAAGKFHTPPGSDRNAAHMSSAFLPWHREYLLRFERDLQSINPEVTLPYWEWETDAQMQDPSQSQIWSADFMGGNGNPIKDFIVDTGPFAAGRWTTIDEQGNPSGGLKRNFGATKEAPTLPTRDDVLNALKITQYDTPPWDMTSQNSFRNQLEGFINGPQLHNRVHRWVGGQMGVVPTAPNDPVFFLHHANVDRIWAVWQIIHRNQNYQPMKNGPFGQNFRDPMYPWNTTPEDVMNHRKLGYVYDIELRKSKRSSGGGGSGGGGSTGSPEDEIQALEEENAQLEQENAALEEEIAQLEYGSGSETPGTSESATPESAISHGFPPEVEEQAAGTLPMSCAQESGMDRHPAACASARINV
# Target: T1, P2-TmEnc^BC2-Tag
protein,measurement,value
B1,melanin formation on CN-PAGE,melanin formation could be demonstrated by color formation on CN-PAGE
same,melanin formation on clear native PAGE,The dark high molecular weight bands at 1.0 MDa represent melanin-loaded TmEnc nanospheres
